Here are results for 91 sequences from the supplement of paper PMC9112550, “Optimization of the antimicrobial peptide Bac7 by deep mutational scanning” (BMC Biology, 2022).

This series concerns Escherichia coli TOP10. As to the kind of experiment: shrunken log2 fold change of peptide-encoding DNA abundance (4.5 h post-induction vs induction); higher = less antimicrobial activity (less host growth inhibition). The settings on record: time post-induction: 4.5 h; library: site-saturation at positions 5, 18, 19, 20.
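Also: peptides expressed intracellularly from a pBAD plasmid library in pooled LB shake-flask culture, induced with 0.3% L-arabinose, DNA abundance read by NGS, three biological replicates, DESeq2 with apeglm shrinkage.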

RRIRPRPPRLPRPRPRPKYRPRP: the “shrunken log2 fold change” value stood at 2.73.
For RRIRHRPPRLPRPRPRPVSEPRP, the “shrunken log2 fold change” value was -0.254.
The same measure for RRIRDRPPRLPRPRPRPYISPRP: -0.176.
The same measure for RRIRKRPPRLPRPRPRPAAVPRP: 0.188.
Next, RRIRKRPPRLPRPRPRPGKFPRP: -0.174; RRIRFRPPRLPRPRPRPAPTPRP: 0.912.
In the case of RRIRTRPPRLPRPRPRPDGHPRP, the “shrunken log2 fold change” value was -0.102.
The same measure for RRIRQRPPRLPRPRPRPKHIPRP: -0.456; for RRIRHRPPRLPRPRPRPVINPRP: -0.242.
Take RRIRHRPPRLPRPRPRPAGVPRP: the “shrunken log2 fold change” value was found to be 0.141.
Next, RRIRYRPPRLPRPRPRPGPWPRP: 0.18; RRIRVRPPRLPRPRPRPLCNPRP: -0.139; RRIRDRPPRLPRPRPRPMRHPRP: 0.089.
Next, RRIRHRPPRLPRPRPRPCCGPRP: -0.114.
The same measure for RRIRIRPPRLPRPRPRPEEHPRP: 0.023; for RRIRLRPPRLPRPRPRPDKSPRP: -0.118; for RRIRGRPPRLPRPRPRPMQNPRP: 0.873.
In the case of RRIRRRPPRLPRPRPRPDREPRP, the “shrunken log2 fold change” value was 0.0377.
As to RRIRFRPPRLPRPRPRPVHNPRP, the “shrunken log2 fold change” value is -0.104.
Next, RRIRHRPPRLPRPRPRPQNGPRP: -0.535; RRIRGRPPRLPRPRPRPTNQPRP: 0.579.
Next, RRIRKRPPRLPRPRPRPFANPRP: -0.0377; RRIRDRPPRLPRPRPRPGRWPRP: 0.797.
The same measure for RRIRKRPPRLPRPRPRPNMYPRP: -0.14.
For RRIRRRPPRLPRPRPRPAIHPRP, the “shrunken log2 fold change” value came out at 0.131.
For RRIRWRPPRLPRPRPRPANPPRP, the “shrunken log2 fold change” value was 0.165.
Next, RRIRRRPPRLPRPRPRPGPWPRP: 0.523.
Next, RRIRLRPPRLPRPRPRPHSAPRP: -0.202; RRIRRRPPRLPRPRPRPGMPPRP: 0.463; RRIRGRPPRLPRPRPRPTVSPRP: 0.731.
Turning to RRIRIRPPRLPRPRPRPTQDPRP, the “shrunken log2 fold change” value is -0.236.
Regarding RRIRARPPRLPRPRPRPRWLPRP, the “shrunken log2 fold change” value is 0.68.
Regarding RRIRLRPPRLPRPRPRPKCMPRP, the “shrunken log2 fold change” value was -0.152.
Next, RRIRERPPRLPRPRPRPMSKPRP: -0.439; RRIRDRPPRLPRPRPRPEFIPRP: 0.163; RRIRQRPPRLPRPRPRPTSQPRP: -0.0461.
The same measure for RRIRLRPPRLPRPRPRPMPQPRP: 0.164.
Next, RRIRWRPPRLPRPRPRPPYRPRP: 3.11; RRIRFRPPRLPRPRPRPAGVPRP: 0.172; RRIRPRPPRLPRPRPRPPPEPRP: 0.492.
For RRIRRRPPRLPRPRPRPTMTPRP, the “shrunken log2 fold change” value is 0.487.
The same measure for RRIRSRPPRLPRPRPRPNEDPRP: -0.0395; for RRIRRRPPRLPRPRPRPFESPRP: -0.0115; for RRIRSRPPRLPRPRPRPHKKPRP: -0.0645.
The same measure for RRIRRRPPRLPRPRPRPRFQPRP: 0.555; for RRIRKRPPRLPRPRPRPRQNPRP: 0.586; for RRIRERPPRLPRPRPRPWTMPRP: 0.0606.
Next, RRIRLRPPRLPRPRPRPNTIPRP: -0.796; RRIRMRPPRLPRPRPRPMVHPRP: 0.0734; RRIRRRPPRLPRPRPRPLMSPRP: -0.246.
Consider RRIRRRPPRLPRPRPRPKHAPRP, for which the “shrunken log2 fold change” value was 0.407.
RRIRFRPPRLPRPRPRPHCVPRP: the “shrunken log2 fold change” value is -0.216.
As to RRIRQRPPRLPRPRPRPQPFPRP, the “shrunken log2 fold change” value was -0.0492.
Next, RRIRFRPPRLPRPRPRPTKWPRP: 0.333; RRIRWRPPRLPRPRPRPHGRPRP: 0.0589; RRIRERPPRLPRPRPRPYCQPRP: -0.0159.
The same measure for RRIRSRPPRLPRPRPRPDEMPRP: 0.435; for RRIRMRPPRLPRPRPRPQFRPRP: -0.235.
Next, RRIRGRPPRLPRPRPRPDLFPRP: 0.723; RRIRTRPPRLPRPRPRPYNIPRP: -0.131.
With RRIRTRPPRLPRPRPRPCTCPRP, the “shrunken log2 fold change” value is -0.00101.
Next, RRIRRRPPRLPRPRPRPKYPPRP: -0.0539.
The same measure for RRIRFRPPRLPRPRPRPHPIPRP: -0.0674.
Turning to RRIRGRPPRLPRPRPRPTQQPRP, the “shrunken log2 fold change” value is 0.94.
The same measure for RRIRSRPPRLPRPRPRPHSHPRP: -0.282.
The same measure for RRIRLRPPRLPRPRPRPVQKPRP: 0.113.
Next, RRIRQRPPRLPRPRPRPKCLPRP: 0.0772.
In the case of RRIRVRPPRLPRPRPRPDPLPRP, the “shrunken log2 fold change” value is -0.231.
The same measure for RRIRGRPPRLPRPRPRPMNNPRP: 0.18; for RRIRTRPPRLPRPRPRPTAMPRP: 0.301; for RRIRRRPPRLPRPRPRPMNCPRP: -0.0277.
RRIRQRPPRLPRPRPRPHIAPRP: the “shrunken log2 fold change” value is -0.142.
Next, RRIRTRPPRLPRPRPRPQKWPRP: -0.147; RRIRMRPPRLPRPRPRPYLCPRP: -0.165.
The same measure for RRIRARPPRLPRPRPRPLYNPRP: -0.225; for RRIRVRPPRLPRPRPRPRDFPRP: 0.0486.
Take RRIRIRPPRLPRPRPRPQCMPRP: the “shrunken log2 fold change” value is -0.836.
The same measure for RRIRDRPPRLPRPRPRPFVAPRP: 0.0541.
The same measure for RRIRYRPPRLPRPRPRPNNRPRP: -0.00509.
The same measure for RRIRDRPPRLPRPRPRPLSTPRP: 0.377; for RRIRARPPRLPRPRPRPAFLPRP: 0.486; for RRIRMRPPRLPRPRPRPDCNPRP: 2.08.
Regarding RRIRQRPPRLPRPRPRPHRPPRP, the “shrunken log2 fold change” value amounted to 0.0757.
As for RRIRWRPPRLPRPRPRPAEKPRP, the “shrunken log2 fold change” value was 0.192.
Next, RRIRERPPRLPRPRPRPMTWPRP: 0.0575; RRIRHRPPRLPRPRPRPWNRPRP: -0.297.
Next, RRIRLRPPRLPRPRPRPLQDPRP: 0.0629; RRIRWRPPRLPRPRPRPQMFPRP: 0.197; RRIRRRPPRLPRPRPRPDVIPRP: -0.068.
For the sequence RRIRKRPPRLPRPRPRPEHNPRP, the “shrunken log2 fold change” value was 0.368.
Next, RRIRNRPPRLPRPRPRPMSAPRP: 0.0853.
